Results reported in patent publication US20200397914A1.

Key:
[1] = biological target: human folate receptor 1 (folate receptor alpha, FRα) on T47D cells (human) (UniProt P15328); test: flow cytometry on T47D cells, FITC anti-human IgG Fcγ detection; control run with M-sSPDB-17
[2] = biological target: human folate receptor 1 (folate receptor alpha, FRα) on T47D cells (human) (UniProt P15328); test: flow cytometry on T47D cells, FITC anti-human IgG Fcγ detection; control run with M-sSPDB-109
[3] = biological target: human folate receptor 1 (folate receptor alpha, FRα) on T47D cells (human) (UniProt P15328); test: flow cytometry on T47D cells, FITC anti-human IgG Fcγ detection; control run with M-160
[4] = biological target: human folate receptor 1 (folate receptor alpha, FRα) on T47D cells (human) (UniProt P15328); test: flow cytometry on T47D cells, FITC anti-human IgG Fcγ detection; control run with M-sSPDB-30
[5] = biological target: human folate receptor 1 (folate receptor alpha, FRα) on T47D cells (human) (UniProt P15328); test: flow cytometry on T47D cells, FITC anti-human IgG Fcγ detection; control run with M-sSPDB-127
[6] = biological target: human folate receptor 1 (folate receptor alpha, FRα) on T47D cells (human) (UniProt P15328); test: flow cytometry on T47D cells, FITC anti-human IgG Fcγ detection; control run with M-166
[7] = biological target: human folate receptor 1 (folate receptor alpha, FRα) on T47D cells (human) (UniProt P15328); test: flow cytometry on T47D cells, FITC anti-human IgG Fcγ detection; control run with M-10
[8] = biological target: human folate receptor 1 (folate receptor alpha, FRα) on T47D cells (human) (UniProt P15328); test: flow cytometry on T47D cells, FITC anti-human IgG Fcγ detection; control run with M-sSPDB-87

human folate receptor 1 (folate receptor alpha, FRα) on T47D cells (human), sequence (P15328 25-234, stated change not applied): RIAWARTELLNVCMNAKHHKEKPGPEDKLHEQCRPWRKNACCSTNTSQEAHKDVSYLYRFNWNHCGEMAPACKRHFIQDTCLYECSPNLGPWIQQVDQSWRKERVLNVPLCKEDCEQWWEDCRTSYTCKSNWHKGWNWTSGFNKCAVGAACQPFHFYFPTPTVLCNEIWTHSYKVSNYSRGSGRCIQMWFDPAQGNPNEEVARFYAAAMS

EC50 [1]: 0.2 nM
EC50 [2]: 0.2 nM
EC50 [3]: 0.2 nM
EC50 [4]: 0.2 nM
EC50 [5]: 0.2 nM
EC50 [6]: 0.2 nM
EC50 [7]: 0.3 nM
EC50 [8]: 0.2 nM
B1: huMov19 antibody (unconjugated) (antibody, from a related filing, V domains shown)
VH: QVQLVQSGAEVVKPGASVKISCKASGYTFTGYFMNWVKQSPGQSLEWIGRIHPYDGDTFYNQKFQGKATLTVDKSSNTAHMELLSLTSEDFAVYYCTRYDGSRAMDYWGQGTTVTVSS
VL: DIVLTQSPLSLAVSLGQPAIISCKASQSVSFAGTSLMHWYHQKPGQQPRLLIYRASNLEAGVPDRFSGSGSKTDFTLTISPVEAEDAATYYCQQSREYPYTFGGGTKLEIKR
